Drawing on publication PMC5615192 (mBio, 2017), this text covers Kd and EC50 for 10 variants.

Sequences and labels used below:
B1: unnamed (parent)
chain 1: EATVYLPPVPVSKVVSTDEYVSRTSIYYYAGSSRLLAVGNPYFSIKSPNNNKKVLVPKVSGLQYRVFRVRLPDPNKFGFPDTSFYNPDTQRLVWACVGLEIGRGQPLGVGVSGHPYLNKFDDTETSNRYPAQPGSDNRECLSMDYKQTQLCLIGCKPPTGEHWGKGVACNNNAAATDCPPLELFNSIIEDGDMVDTGFGCMDFGTLQANKSDVPIDICNSTCKYPDYLKMASEPYGDSLFFFLRREQMFVRHFFNRAGKLGEAVPDDLYIKGSGNTAVIQSSAFFPTPSGSIVTSESQLFNKPYWLQRAQGHNNGICWGNQLFVTVVDTTRSTNMTLCTEVTKEGTYKNDNFKEYVRHVEEYDLQFVFQLCKITLTAEIMTYIHTMDSNILEDWQFGLTPPPSASLQDTYRFVTSQAITCQKTAPPKEKEDPLNKYTFWEVNLKEKFSADLDQFPLGRKFLLQSGLKAKPRLKRSAPTTRAPSTKRKKVKK
chain 2: EVQLQQSGAELVRPGALVKLSCKASGFNIKDYYMHWVKQRPEQGLEWIGWIDPENGKTIYDPRFRGKASITADTSSNTAYLQLSSLTSEDAAVYYCATSNYRYDRSFDYWGQGTTLTVSAKTTPPSVYPLAPGCGDTTGSSVTSGCLVKGYFPEPVTVTWNSGSLSSSVHTFPALLQSGLYTMSSSVTVPSSTWPSQTVTCSVAHPASSTTVDKKL
chain 3: DIQMTQSPSSLFASLGGKVTITCKASQDINKYIAWFQHKPGKGPRLLIHYTFTLQPGIPSRFSGSGSGRDYSFSISNLEPEDIATYYCLQYHNLYTFGGGTKLEIKRADAAPTVSIFPPSSEQLTSGGASVVCFLNNFYPKDINVKWKIDGSERQNGVLNSWTDQDSKDSTYSMSSTLTLTKDEYERHNSYTCEATHKTSTSPIVKSFNRNEC
B2: unnamed (parent)
chain 1: B1 chain 2
chain 2: B1 chain 3
chain 3: B1 chain 1

In the first experiment the parent is B1. Description: SPR (Biacore). Particulars: with partner chain of the complex shown; read off a plot.
By Kd is commonly meant the concentration at which binding is half-saturated. Consider chain 1 N137A, for which the dissociation constant (Kd) is 8.2 -log10, M.

Take chain 1 Q132A: the dissociation constant (Kd) was 7.9 -log10, M.

Turning to chain 1 S135A, the Kd was 8.2 -log10, M.

In the case of chain 1 R128A, the dissociation constant Kd was 6 -log10, M.

As for chain 1 N275A, the equilibrium dissociation constant (Kd) is 6.9 -log10, M.

In another experiment the parent is B2. Description: indirect ELISA. The conditions noted are these: with partner chain of the complex shown.
One may read the EC50 as the midpoint of the concentration-response curve. In the case of chain 3 N275A, the EC50 worked out at 0.0455 µg/mL.

chain 3 D121A: the 50% effective concentration (EC50) was 0.0784 µg/mL.

Turning to chain 3 Q132A, the EC50 was 0.0152 µg/mL.

With chain 3 S135A, the concentration giving a half-maximal response (EC50) came out at 0.0132 µg/mL.

Consider chain 3 N137A, for which the EC50 came out at 0.011 µg/mL.
